Test results as given in patent publication US20240417440A1 (published 2024).

Legend:
[1] = target: T1, NY-ESO-1/LAGE-1 peptide on HLA-A*02:01 (human); assay: multimer staining
T1 peptide: SLLMWITQC

[2] = target: T2, NY-ESO-1 peptide on HLA-A*02:01 (human); assay: cytokine release
T2 peptide: RLLEFYLAM

[3] = target: T3, NY-ESO-1 peptide on HLA-A*02:01 (human); assay: cytokine release
T3 peptide: FTVSGNILTI

B1: T11.8-10-17 (TCR, V domains shown)
Valpha: QKEVEQNSGPLSVPEGAIASLNCTYSDRGSQSFFWYRQYSGKSPELIMFIYSNGDKEDGRFTAQLNKASQYVSLLIRDSQPSDSATYLCAADDKIIFGKGTRLHILP
Vbeta: DAGVIQSPRHEVTEMGQEVTLRCKPISGHDYLFWYRQTMMRGLELLIYFNNNVPIDDSGMPEDRFSAKMPNASFSTLKIQPSEPRDSAVYFCASSRGGSGYTFGSGTRLTVV
B1: recognises [1]; no recognition [2]; no recognition [3].
